Source: patent US20160039945A1 (Amgen, published 2016)

B1: 101F7 (antibody, human IgG2, lambda, V domains shown)
VH: QVQLVQSGAEVKKPGASVKVSCKASGYTFSSYGISWVRQAPGQGLEWMGWISAYNGNTNYAQKFQGRVTMTTDTSTSTAYMELRSLRSDDTAVYYCAREVRLAARPDHYYGMDVWGQGTTVTVSS
VL: QSVLTQPPSVSAAPGQKVTISCSGSSSNIGINYVSWYQLLPGTAPKLLIYDNNKRPLGIPDRFSGSKSGTSATLGITGLQTGDETDYYCGTWDSSLSAWVFGGGTKLTVLG
notes: Fully human XenoMouse antibody; also called L1/H1; VL1/VH1
B2: 103B7 (antibody, human IgG2, lambda, V domains shown)
VH: QVQLVQSGAEVKKPGASVKVSCKASGYTFSSYGISWVRQAPGQGLEWMGWISAYNGNTNYAQKFQGRVTMTTDTSTSTAYMELRSLRSDDTAVYYCAREVRLAARPDHYYGMDVWGQGTTVTVSS
VL: QSVLTQPPSVSAAPGQKVTISCSGSSSNIGINYVSWYQLLPGTAPKLLIYDNNKRPLGIPDRFSGSKSGTSVTLGITGLQTGDEADYFCGTWDSNLSAWVFGGGTKLTVLG
notes: Fully human XenoMouse antibody; also called L2/H2; VL2/VH1
B3: 131D12 (antibody, human IgG2, lambda, V domains shown)
VH: QGQLVESGGGVVQPGRSLRLSCAASGFTFSSYGMHWVRQAPGKGLEWVAVIWHDGSNKYYADSVKGRFTISRDNSKNTLYLQMNSLRAEDTAVYYCARVVPDNWNQDYYGMDVWGQGTTVTVSS
VL: SYELTQPPSVSVSPGQTASITCSGDKLGDKYACWFQQKPGQSPVLVIYQDSKRPFGIPDRFSGSKSGNTATLTISGTQAMEEADYYCQAWDSSTAVFGGGTKLTVLG
notes: Fully human XenoMouse antibody; also called L3/H3; VL3/VH2
B4: 27B2 (antibody, human IgG2, lambda, V domains shown)
VH: QVQLVESGGGVVQPGRSLRLSCAASGFTFSSYGMHWVRQAPGKGLEWVAAIWYDGSNKYYAESVKGRFTISRDNSKYTLYLQVNSLRAEDTAVYYCARRGGLAARPGGLDVWGQGTTVTVAS
VL: SYELTQPPSVSVSPGQTISISCSGDKLGDKNACWYQQKPGQSPGLVIYQDSKRPLGIPARFSGSNSGNTATLTISGTQAMDEADYYCQAWDISTVVFGGGTKLTVLG
notes: Fully human XenoMouse antibody; Tested as hybridoma supernatant, the VH ends '...TTVTV' without the final 'SS'; also called 27B2.6; L4/H4

What was measured:
[1] = target: T1, human proprotein convertase subtilisin kexin type 9 (self-cleaved, mature, secreted PCSK9) (human, UniProt Q8NBP7 31-692); test: solution equilibrium binding assay on BIAcore, pH 5.5
T1 construct: Self-cleavage means the pro-domain and the catalytic/C-terminal part are separate, associated polypeptides; also called huPCSK9; wild-type PCSK9
Experimental: (§1) Binding of anti-PCSK9 antibodies to human and cynomolgus monkey PCSK9 was measured by solution equilibrium binding assay on BIAcore. Antibody was immobilized on the second flow cell of a CM5 chip using amine coupling (reagents provided by GE Healthcare, Piscataway, N.J.) with an approximate density of 6000 RU. The first flow cell was used as a background control. For assay at pH 7.4, 0.1 nM or 1.0 nM of PCSK9 were mixed with serial dilutions of antibody (ranging from 0.003 nM to 50 nM) in PBS plus 0.1 mg/mL BSA, 0.005% P20 and incubated at room temperature for 4 hours. For assay at pH 5.5, 0.1 nM or 1.0 nM of PCSK9 were mixed with serial dilutions of antibody (ranging from 0.003 nM to 50 nM) in 10 mM Sodium Citrate, pH 5.5, plus 150 mM NaCl, 0.1 mg/mL BSA, 0.005% P20 and incubated at room temperature for 4 hours. Binding of free PCSK9 in the mixed solutions was measured by injecting over the antibody coated chip surface. One hundred percent PCSK9 binding signal on the antibody surface was determined in the absence of antibody in the solution. A decreased PCSK9 binding response with increasing concentrations of antibody in solution indicated PCSK9 was binding to the antibody, preventing PCSK9 from binding to the immobilized antibody surface. Plotting the PCSK9 binding signal versus antibody concentration, the KD was obtained from nonlinear regression of the competition curves using an n-curve one-site homogeneous binding model provided in the KinExA Pro software.

cynomolgus PCSK9 [2] = target: T2, cynomolgus PCSK9 (cynomolgus monkey, UniProt A8T662 31-692 (Macaca nemestrina entry), limits assumed); test: as above
T2 construct: also called cyPCSK9; cynomolgus monkey PCSK9
Experimental: as §1

[3] = target: T1, human proprotein convertase subtilisin …; test: solution equilibrium binding assay on BIAcore, pH 7.4
Experimental: as §1

cynomolgus PCSK9 [4] = target: T2, cynomolgus PCSK9; test: as above
Experimental: as §1

[5] = target: T1, human proprotein convertase subtilisin …; test: ELISA, hybridoma supernatant on neutravidin-captured biotinylated PCSK9
Experimental: A primary screen for antibodies which bind to wild-type PCSK9 was performed. The primary screen was performed on two harvests. The primary screen comprised an ELISA assay and was performed using the following protocol:
The plates were coated with neutravadin at a concentration of 4 μg/ml in 1×PBS/0.05% Azide, at a volume of 40 μl/well. The plates were incubated at 4° C. overnight. The plates were then washed using a Titertek plate washer (Titertek, Huntsville, Ala.). A 3-cycle wash was performed. The plates were blocked with 90 μl of 1×PBS/1% milk and incubated approximately 30 minutes at room temperature. The plates were then washed. Again, a 3-cycle wash was performed. The capture sample was biotinylated-PCSK9, and was added at 0.9 μg/ml in 1×PBS/1% milk/10 mM Ca²⁺ at a volume of 40 μl/well. The plates were then incubated for 1 hour at room temperature. Next, the plates were washed using the Titertek plate washer operated using a 3-cycle wash. 10 μl of supernatant was transferred into 40 μl of 1×PBS/1% milk/10 mM Ca²⁺ and incubated 1.5 hours at room temperature. Again the plates were washed using the Titertek plate washer operated using a 3-cycle wash. 40 μl/well of Goat anti-Human IgG Fc HRP at a concentration of 100 ng/ml (1:4000) in 1λ PBS/1% milk/10 mM Ca²⁺ was added to the plate and was incubated 1 hour at room temperature. The plates were washed once again, using a 3-cycle wash. Finally, 40 μl/well of One-step TMB (Neogen, Lexington, Ky.) was added to the plate and quenching with 40 μl/well of 1N hydrochloric acid was performed after 30 minutes at room temperature. OD's were read immediately at 450 nm using a Titertek plate reader. Positive binding was determined as 3 times the average of signal of the negative control which was hybridoma supernatant.

[6] = target: T1, human proprotein convertase subtilisin …; test: competition ELISA, supernatant pre-incubated with b-PCSK9; competitor 26H5 coated on plate
Experimental: (§2) Hybridoma supernatants were then assayed for direct binding competition. […] The next day each hybridoma supernatant was preincubated with 100 ng/ml b-PCSK9 at a 1:5 final dilution. These samples were then incubated for 2 hours at RT. The precoated antibody capture plates were then washed and the pre-incubated samples of hybridoma Antibody supernatants and B-PCSK9 were added to the plates and incubated for 1 hour at room temperature. Detection of bound b-PCSK9 was done with streptavidin HRP (Thermo P21126) at 500 ng/ml in 1×PBS/1% non fat skim milk. Incubated for 1 hour then added chromogenic substrate TMB, 3,3′,5,5′-tetramethylbenzidine, 40 ul/well incubated anywhere from 15 minutes to 60 minutes depending on OD then stopped with one molar hydrochloric acid. Optical density at 450 nm read on Multiskan Ascent reader. A % Inhibition was then calculated by comparing the amount of bound b-PCSK9 after preincubation with anti-PCSK9 hybridoma sups versus negative control wells using irrelevant hybridoma supernatants. % Inhibition=1−(OD of Ab supernatant/B-PCSK9/OD of Neg. control supernatant/B-PCSK9).

[7] = target: T1, human proprotein convertase subtilisin …; test: competition ELISA, supernatant pre-incubated with b-PCSK9; competitor 31H4 coated on plate
Experimental: as §2

human D374Y PCSK9 mutant = target: T3, human D374Y PCSK9 mutant (human, UniProt Q8NBP7 31-692, limits assumed); test: receptor-ligand blocking ELISA: supernatant pre-incubated with biotinylated D374Y PCSK9, binding to captured LDLR
T3 construct: It was biotinylated in the assay; also called biotinylated human D374Y PCSK9
T3 sequence (Q8NBP7 other isoform, or with tags, fused parts or gaps D374Y D374Y limits assumed): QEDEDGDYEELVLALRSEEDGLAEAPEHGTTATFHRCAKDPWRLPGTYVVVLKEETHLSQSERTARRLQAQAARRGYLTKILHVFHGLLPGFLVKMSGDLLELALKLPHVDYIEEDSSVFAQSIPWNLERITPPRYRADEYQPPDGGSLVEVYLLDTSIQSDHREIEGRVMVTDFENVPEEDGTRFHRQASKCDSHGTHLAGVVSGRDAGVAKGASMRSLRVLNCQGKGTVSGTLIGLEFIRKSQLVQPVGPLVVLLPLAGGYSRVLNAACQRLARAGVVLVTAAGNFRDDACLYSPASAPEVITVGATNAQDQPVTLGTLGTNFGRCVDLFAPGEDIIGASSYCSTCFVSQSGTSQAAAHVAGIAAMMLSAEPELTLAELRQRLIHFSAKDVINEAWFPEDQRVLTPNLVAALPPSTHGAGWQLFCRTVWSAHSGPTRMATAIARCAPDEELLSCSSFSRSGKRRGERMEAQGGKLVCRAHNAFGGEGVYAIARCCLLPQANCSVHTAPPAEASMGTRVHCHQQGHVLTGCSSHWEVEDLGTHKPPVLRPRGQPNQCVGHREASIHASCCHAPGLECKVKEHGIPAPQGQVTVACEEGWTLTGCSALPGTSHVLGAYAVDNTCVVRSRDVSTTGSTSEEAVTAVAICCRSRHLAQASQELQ
Experimental: The plates were coated with goat anti-LDLR (R&D Cat #AF2148) at 2 μg/ml in 1λPBS/0.05% Azide at a volume of 40 μl/well. The plates were incubated at 4° C. overnight. The plates were then washed using a Titertek plate washer (Titertek, Huntsville, Ala.). A 3-cycle wash was performed. The plates were blocked with 90 μl of 1λ PBS/1% milk and incubated approximately 30 minutes at room temperature. The plates were then washed using the Titertek plate washer. A 3-cycle wash was performed. […] The plates were then incubated for 1 hour and 10 minutes at room temperature. […] The plates were then pre-incubated for about 1 hour and 30 minutes at room temperature. Next, the plates were washed using the Titertek plate washer operated using a 3-cycle wash. 50 μl/well of the pre-incubated mixture was transferred onto the LDLR coated ELISA plates and incubated for 1 hour at room temperature. To detect LDLR-bound b-PCSK9, 40 μl/well streptavidin HRP at 500 ng/ml in assay diluent was added to the plates. The plates were incubated for 1 hour at room temperature. The plates were again washed using a Titertek plate washer. A 3-cycle wash was performed. Finally, 40 μl/well of One-step TMB (Neogen, Lexington, Ky.) was added to the plate and was quenched with 40 μl/well of 1N hydrochloric acid after 30 minutes at room temperature. OD's were read immediately at 450 nm using a Titertek plate reader.

T2 sequence (A8T662 31-692 K611R limits assumed): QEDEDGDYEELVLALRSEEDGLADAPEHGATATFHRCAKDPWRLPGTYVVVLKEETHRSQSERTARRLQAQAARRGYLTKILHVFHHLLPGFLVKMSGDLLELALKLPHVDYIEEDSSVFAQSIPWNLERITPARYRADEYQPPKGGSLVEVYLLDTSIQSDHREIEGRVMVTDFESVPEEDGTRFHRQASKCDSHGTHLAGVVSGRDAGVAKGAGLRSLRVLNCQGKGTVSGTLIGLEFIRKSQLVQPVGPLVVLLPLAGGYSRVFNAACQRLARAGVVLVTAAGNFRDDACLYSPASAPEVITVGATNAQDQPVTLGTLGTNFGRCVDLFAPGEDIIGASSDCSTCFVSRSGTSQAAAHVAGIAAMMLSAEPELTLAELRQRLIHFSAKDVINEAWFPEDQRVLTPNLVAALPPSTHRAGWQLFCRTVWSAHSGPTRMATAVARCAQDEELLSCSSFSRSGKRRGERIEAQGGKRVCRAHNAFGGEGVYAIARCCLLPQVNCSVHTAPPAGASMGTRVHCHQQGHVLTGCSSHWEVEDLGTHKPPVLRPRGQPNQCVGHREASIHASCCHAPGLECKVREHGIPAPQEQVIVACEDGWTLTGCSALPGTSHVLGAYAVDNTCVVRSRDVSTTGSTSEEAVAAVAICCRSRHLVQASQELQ
T1 sequence (Q8NBP7 other isoform, or with tags, fused parts or gaps): as the sequence (Q8NBP7 other isoform, or with tags, fused parts or gaps D374Y D374Y limits assumed) above, with Y344D counted along it

Binder | Kd [1] [nM] | Kd (cynomolgus PCSK9 [2]) [nM] | Kd [3] [nM] | Kd (cynomolgus PCSK9 [4]) [nM] | Early primary screen OD [5] | Late primary screen OD [5] | % inhibition of 26H5 Binding [6] [%] | % inhibition of 31H4 Binding [7] [%] | % R-L Inhibition (human D374Y PCSK9 mutant) [%]
B1 | 0.016 | 0.008 | 0.006 | 0.008 | 3.45 OD (450 nm) | 3.91 OD (450 nm) | 92 | 82 | 94
B2 | 0.018 | 0.022 | 0.007 | 0.011 | 4.03 OD (450 nm) | 3.46 OD (450 nm) | 90 | 79 | 93
B3 | 0.12 | 3.1 | 0.067 | 1.5 | 3.3 OD (450 nm) | 3.56 OD (450 nm) | 90 | 89 | 92
B4 |  |  |  |  | 4.9 OD (450 nm) | 4.2 OD (450 nm) |  |  | 93
